What all share (test): cell_activity
The subject of series [1] is SBS68879 ZFN Qm5 in F1,F3,F5; FokI K525S. The following applies: 55266-2A-68879, T cells, 12 ug mRNA.
The test system of series [2] is SBS68815 ZFN Qm5 in F1,F3,F5; FokI R416E. As to conditions: 55266-2A-68815, T cells, 12 ug mRNA.
For a further series, the system named is SBS53810 ZFN. As to conditions: pair 53810:55255, K562, 500 ng/ZFN.
A further series deals with SBS55260 ZFN. As to conditions: pair 55248:55260, K562, 500 ng/ZFN.
Series [3] concerns SBS68812 ZFN Qm5 in F1,F3 (nQm5s [sic]),F4; FokI R416E. As to conditions: 68812-2A-68813, T cells, 12 ug mRNA.
Another series deals with SBS55255 ZFN. As to conditions: pair 53810:55255, K562, 500 ng/ZFN.
The test system of series [4] is SBS68796 ZFN Qm5 in F1,F3 (nQm5s [sic]),F4. As to conditions: 68796-2A-68813, T cells, 12 ug mRNA; off-target at background.
The test system of series [5] is SBS68876 ZFN Qm5 in F1,F3 (nQm5s [sic]),F4; FokI K525S. The following applies: 68876-2A-68877, T cells, 12 ug mRNA.
The next series concerns SBS55254 ZFN. As to conditions: pair 55248:55254, K562, 500 ng/ZFN.
In another series the test system is SBS53785 ZFN. As to conditions: pair 55229:53785, K562, 500 ng/ZFN.
For the next series, the system named is SBS55229 ZFN. As to conditions: pair 55229:53785, K562, 500 ng/ZFN.
The next series concerns SBS57531 ZFN. The following applies: pair 72732/57531, background corrected.
The subject of another series is SBS68957 ZFN FokI K525S. As to conditions: pair 57071/68957, background corrected.
The test system of a further series is SBS72748 ZFN FokI Q481D. As to conditions: pair 72748/68957, background corrected.
The next series deals with SBS57071 ZFN. As to conditions: pair 57071/68957, background corrected.
In another series the test system is SBS53759 ZFN. The following applies: pair 55204:53759, K562, 500 ng/ZFN.
For the next series, the system named is SBS52742 ZFN. The following applies: pair 52774:52742, K562, 500 ng/ZFN.
The next series has as its system SBS53909 ZFN. As to conditions: pair 53885:53909, K562, 500 ng/ZFN.
A further series has as its system SBS53863 ZFN. The following applies: pair 53860:53863, K562, 500 ng/ZFN.
In another series the test system is SBS55287 ZFN. As to conditions: pair 53856:55287, K562, 500 ng/ZFN.
The next series relates to SBS55204 ZFN. As to conditions: pair 55204:53759, K562, 500 ng/ZFN.

As to “AACAGGTAAGACAGGGGTCTAGCCTGGG (double strand) [TCRA site E right]”, the activity in series [1] was 96.3 % indels; in series [2] it was 97.6 % indels.
Take “AGGATTCGGAACCCAATCACTG (double strand) [TCRA site of 53810]”: the activity in the series with SBS53810 ZFN came to 91.5 % NHEJ.
As for “CTCCTGAAAGTGGCCGGGTTTAATCTGC (double strand) [TCRA site D left]”, the activity stood at 93 % NHEJ in the series on SBS55260 ZFN; 99.9 % indels in series [3]; 91.5 % NHEJ in the series with SBS55255 ZFN; 99.3 % indels in series [4]; 99.2 % indels in [5]; 96.2 % NHEJ with SBS55254 ZFN.
Sequence “CTGTGGCCTGGAGCAACAAATCTGACTT (double strand) [TCRA site of 53785]” returned an activity in the series with SBS53785 ZFN of 93.6 % NHEJ.
Sequence “CTGTTGCTCTTGAAGTCCATAGACCTCA (double strand) [TCRA site of 55229]” came in with an activity with SBS55229 ZFN of 93.6 % NHEJ.
On to “GAGTAGCGCGAGCACAGCTAAGGCCACG (double strand) [B2M site of 57531]”, for which the activity was 95.8 % indels in the series with SBS57531 ZFN and 91.6 % indels in the series on SBS68957 ZFN FokI K525S.
As for “GCCACGGAGCGAGACATCTCGGCCCGAA (double strand) [B2M site of 57071]”, the figures for the activity in the series with SBS72748 ZFN FokI Q481D and in the series on SBS57071 ZFN were 93.4 % indels and 91.6 % indels, respectively.
Take “GTGCTGTGGCCTGGAGCAACAAATCTGA (double strand) [TCRA site of 53759]”: in the series with SBS53759 ZFN, the activity was found to be 87.7 % NHEJ.
Consider “TCCTCCTGAAAGTGGCCGGGTTTAATCT (double strand) [TCRA site G right]”, for which the results for the activity in the series with SBS52742 ZFN and in the series with SBS53909 ZFN were 84.4 % NHEJ and 90.2 % NHEJ, respectively.
As to “TTCAAGAGCAACAGTGCTGTGGCCTGGA (double strand) [TCRA site F right]”, the figures for the activity with SBS53863 ZFN and in the series on SBS55287 ZFN were 87.3 % NHEJ and 74.8 % NHEJ, respectively.
The sequence “TTGCTCTTGAAGTCCATAGACCTCATGT (double strand) [TCRA site of 55204]” gave an activity with SBS55204 ZFN of 87.7 % NHEJ.

The values are drawn from patent publication US20180362926.
